Where “and” joins values, the source holds several entries; their conditions need not be identical. Identical values can stand only once. Square brackets hold non-standard residues; d marks the D form. Ends that are not written are not given here. dMet(O) = CS(=O)CC[C@@H](N)C(=O)O
These binders were tested against Tau40 P301L protein (human) (assay: cell-based or functional assay).

| Binder | IC50, Tau40 assay (ThT) |
| --- | --- |
| [dL][dK][dI][dW][dI][dH][dY][dH] [lkiwihyh (PEPTIDE ID NO: 299)] | 1910 nM |
| [dL][dH][dI][dR][dL][dR][dH][dW] [lhirlrhw (PEPTIDE ID NO: 153)] | 1840 nM and 1880 nM |
| [dK][dI][dK][dI][dK][dW] [kikikw (PEPTIDE ID NO: 66)] | 1870 nM |
| [dF][dH][dI][dR][dL][dE][dW][dH] [fhirlewh (PEPTIDE ID NO: 139)] | 1860 nM and 2190 nM |
| [dF][dH][dI][dH][dI][dK][dF][dH] [fhihikfh (PEPTIDE ID NO: 437)] | 2020 nM |
| [dF][dK][dL][dH][dI][dR][dH][dW] [fklhirhw (PEPTIDE ID NO: 128)] | 1710 nM and 1760 nM |
| [dL][dK][dI][dR][dI][dH][dY][dR] [lkirihyr (PEPTIDE ID NO: 291)] | 1810 nM |
| [dR][dI][dR][dW][dR][dW] [rirwrw (PEPTIDE ID NO: 50)] | 2020 nM |
| [dR][dI][dK][dL][dR][dW] [riklrw (PEPTIDE ID NO: 24)] | 2030 nM and 2060 nM |
| [dK][dV][dR][dW][dW][dL][dR][dW] [kvrwwlrw (PEPTIDE ID NO: 201)] | 710 nM |
| [dF][dR][dL][dK][dL][dR][dF][dH] [frlklrfh (PEPTIDE ID NO: 426)] | 1770 nM |
| [dH][dY][dH][dI][dR][dI][dK][dL] [hyhirikl (PEPTIDE ID NO: 300)] | 1940 nM |
| [dF][dK][dI][dK][dL][dK][dW] [fkiklkw (PEPTIDE ID NO: 35)] | 1740 nM and 1840 nM |
| [dF][dR][dI][dR][dI][dH][dH][dF] [fririhhf (PEPTIDE ID NO: 113)] | 740 nM and 810 nM |
| [dR][dI][dR][dL][dR][dW] [rirlrw (PEPTIDE ID NO: 38)] | 2040 nM and 2200 nM |
| [dP][dR][dI][dR][dL][dH][dW] [prirlhw (PEPTIDE ID NO: 33)] | 1940 nM and 1950 nM |
| [dL][dW][dR][dL][dK][dV][dR][dW] [lwrlkvrw (PEPTIDE ID NO: 202)] | 720 nM |
| [dL][dK][dI][dH][dI][dH][dY][dH] [lkihihyh (PEPTIDE ID NO: 295)] | 1850 nM |
| [dL][dR][dL][dR][dI][dK][dH][dF] [lrlrikhf (PEPTIDE ID NO: 150)] | 1780 nM and 2430 nM |
| [dL][dK][dI][dR][dI][dMet(O)][dY] [lkirixy (PEPTIDE ID NO: 297)] | 1880 nM |
| [dR][dL][dK][dV][dR][dW][dW] [rlkvrww (PEPTIDE ID NO: 298)] | 1900 nM |
| [dF][dK][dI][dR][dI][dH][dH][dY] [fkirihhy (PEPTIDE ID NO: 122)] | 1890 nM and 910 nM |
| [dF][dR][dL][dK][dV][dR][dW][dF] [frlkvrwf (PEPTIDE ID NO: 4)] | 1870 nM and 1910 nM and 870 nM |
| [dL][dK][dI][dR][dI][dA][dY][dH] [lkiriayh (PEPTIDE ID NO: 303)] | 2030 nM |
| [dL][dK][dI][dF][dI][dY][dY][dH] [lkifiyyh (PEPTIDE ID NO: 302)] | 1990 nM |

Now from value to binder:

| IC50, Tau40 assay (ThT) | Binder |
| --- | --- |
| 2070 nM | [dW][dM][dL][dR][dI][dH][dW] [wmlrihw (PEPTIDE ID NO: 304)] |
| 1770 nM and 2530 nM | [dW][dF][dK][dI][dK][dL][dE][dL] [wfkiklel (PEPTIDE ID NO: 110)] |
| 1940 nM | [dW][dR][dL][dA][dV][dR][dW] [wrlavrw (PEPTIDE ID NO: 301)] |
| 1720 nM | [dW][dR][dL][dE][dV][dR][dW][dW] [wrlevrww (PEPTIDE ID NO: 288)] |
| 1870 nM | [dW][dR][dL][dK][dV][dN][dW] [wrlkvnw (PEPTIDE ID NO: 296)] |
| 1820 nM | [dW][dN][dL][dK][dV][dR][dW] [wnlkvrw (PEPTIDE ID NO: 294)] |
| 2050 nM | [dR][dL][dR][dI][dH][dW][dW] [rlrihww (PEPTIDE ID NO: 164)] |
| 1980 nM | [dW][dR][dL][dR][dI][dW][dW] [wrlriww (PEPTIDE ID NO: 103)] |
| 1730 nM and 1760 nM | [dW][dK][dV][dQ][dV][dR][dW] [wkvqvrw (PEPTIDE ID NO: 89)] |
| 2070 nM | [dW][dT][dL][dR][dI][dH][dW] [wtlrihw (PEPTIDE ID NO: 305)] |
| 1670 nM and 1710 nM | [dW][dK][dV][dN][dV][dR][dL][dW] [wkvnvrlw (PEPTIDE ID NO: 95)] |
| 1910 nM and 2450 nM | [dW][dR][dI][dR][dL][dR][dY][dW] [wrirlryw (PEPTIDE ID NO: 104)] |
| 1820 nM | [dW][dR][dL][dH][dV][dR][dW][dW] [wrlhvrww (PEPTIDE ID NO: 292)] |
| 1790 nM | [dR][dR][dL][dR][dI][dH][dW] [rrlrihw (PEPTIDE ID NO: 290)] |
| 1680 nM | [dR][dR][dL][dK][dV][dR][dW][dR] [rrlkvrwr (PEPTIDE ID NO: 439)] |
| 740 nM | [dV][dR][dW][dW][dW][dR][dL][dK] [vrwwwrlk (PEPTIDE ID NO: 204)] |
| 1690 nM | [dW][dK][dV][dK][dF][dQ][dH][dW] [wkvkfqhw (PEPTIDE ID NO: 94)] |
| 1770 nM | [dW][dR][dL][dK][dV][dR][dW] [wrlkvrw (PEPTIDE ID NO: 289)] |
| 2020 nM | [dW][dI][dK][dI][dW][dR] [wikiwr (PEPTIDE ID NO: 29)] |

From US20200216495A1 (ADRX, published 2020)
